# Measured values published in PMC7214462.
# How the values were obtained:
# [1] = test system: LdCsm effector complex, wild type (Csm1/Cas10-Csm2-Csm3-Csm4-Csm5) (Lactobacillus delbrueckii subsp. bulgaricus ND04); assay: EMSA; details: 5 nM 5'-32P S10-60 ssDNA in cleavage buffer (composition not in material; cOA assay buffer is 50 mM Tris-Cl pH 6.8 …)
# [2] = test system: LdCsm Csm3D34A (Lactobacillus delbrueckii subsp. bulgaricus ND04); assay: EMSA; details: 100 nM effector, 500 nM PTR; 5 nM 5'-32P S10-60 ssDNA in cleavage buffer (composition not in material; cOA assay buffer is 50 mM Tris-Cl pH 6.8 …)
sequence,measurement,setting,value
ACTATAGGGAGAATAGAATGCCCCCATTATACAATATCTACGTTTTAGATGACCCCCCCC / ACGAGAACUUCAAAGCUUAGAUACCCUGGAGG / AUAGAAUGCCCCCAUUAUACAAUAUCUACGUUUUAGAUGAAAAAAA [S10-60 ssDNA + S1 crRNA + S10 RNA (non-homologous)],binding signal (relative to WT with non-homologous RNA),"[1]; 100 nM LdCsm, 400 nM S10 RNA, little binding, reference",1
ACTATAGGGAGAATAGAATGCCCCCATTATACAATATCTACGTTTTAGATGACCCCCCCC / ACGAGAACUUCAAAGCUUAGAUACCCUGGAGG / GGUGUUAAGUCUGGUUUCCCUCCAGGGUAUCUAAGCUUUGAAA [S10-60 ssDNA + S1 crRNA + CTR+1],binding signal (% of full activity),"[1]; 100 nM LdCsm, 500 nM CTR+1",90
ACTATAGGGAGAATAGAATGCCCCCATTATACAATATCTACGTTTTAGATGACCCCCCCC / ACGAGAACUUCAAAGCUUAGAUACCCUGGAGG / GGUGUUAAGUCUGGUUUCCCUCCAGGGUAUCUAAGCUUUGAAAAAAAA [S10-60 ssDNA + S1 crRNA + CTR+6],binding signal (fraction of CTR+6 complex),"[1]; 100 nM LdCsm, 500 nM CTR+6, reference",1
ACTATAGGGAGAATAGAATGCCCCCATTATACAATATCTACGTTTTAGATGACCCCCCCC / ACGAGAACUUCAAAGCUUAGAUACCCUGGAGG / GGUGUUAAGUCUGGUUUCCCUCCAGGGUAUCUAAGCUUUGAAG [S10-60 ssDNA + S1 crRNA + NTR+1],binding signal (% of full activity),"[1]; 100 nM LdCsm, 500 nM NTR+1",70
ACTATAGGGAGAATAGAATGCCCCCATTATACAATATCTACGTTTTAGATGACCCCCCCC / ACGAGAACUUCAAAGCUUAGAUACCCUGGAGG / UGUUAAGUCUGGUUUCCCUCCAGGGUAUCUAAGCUUUGAA [S10-60 ssDNA + S1 crRNA + PTR (S1-40)],binding signal (fold vs non-homologous RNA),[2],3
same,binding signal (% of CTR-LdCsm),"[1]; 100 nM LdCsm, 500 nM PTR",55
same,binding signal (fold vs non-homologous RNA),"[1]; 100 nM LdCsm, 500 nM PTR",2
ACTATAGGGAGAATAGAATGCCCCCATTATACAATATCTACGTTTTAGATGACCCCCCCC / ACGAGAACUUCAAAGCUUAGAUACCCUGGAGG / UGUUAAGUCUGGUUUCCCUCCAGGGUAUCUAAGCUUUGAAAAAAAA [S10-60 ssDNA + S1 crRNA + CTR (S1-46)],binding signal,"[1]; 25-100 nM effector, 500 nM CTR, reference",100 % of WT
